In patent publication US20120034231A1 (Novartis, published 2012):
Like-named read-outs stand apart in the source and are kept apart here.

T1: human IL4Rα/Fc (human, UniProt P24394 26-232, limits assumed)
T1 construct: also called rh IL4Ra/Fc
T1 sequence (looked up): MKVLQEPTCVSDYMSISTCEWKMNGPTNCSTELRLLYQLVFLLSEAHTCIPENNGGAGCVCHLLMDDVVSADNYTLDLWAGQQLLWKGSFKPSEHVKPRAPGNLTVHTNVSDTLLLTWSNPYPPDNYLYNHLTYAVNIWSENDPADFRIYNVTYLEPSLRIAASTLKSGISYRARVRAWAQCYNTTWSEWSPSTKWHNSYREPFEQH


How the values were obtained:
[1] = target: T1, human IL4Rα/Fc; assay: ELISA, antigen directly coated, IgG4
[2] = target: T2, cynomolgus IL12Rβ1 (cynomolgus, UniProt A0A2K5VWV1 24-662); assay: FACS on Baf3 cells transfected with cyno IL12Rβ1, IgG4
T2 construct: whole, on cells; also called cyno IL12Rβ1; Cyno IL-12Rβ1
Experimental: (§1) Cells of the respective cell line (BaF3 cells stable transfected with cyno and human IL12Rβ1; HEK EBNA and Jurkat cells stable transfected with cyno IL12Rβ1) were counted and adjusted to 2×10⁷ cells/ml in PBS/3% FCS/0.02% NaN₃ (FAGS buffer). FAGS staining was performed in V-bottom 96-well microtiter plates (NUNC™, Wiesbaden, Germany) and 1×10⁵ cells per well were mixed with a) purified Fab fragments or b) purified IgG4 or c) positive control antibody (mouse anti IL12Rβ1, R&D Systems, Cat#: MAB839), diluted in FACS buffer and incubated at […] for 1 h. Cells were then washed 2× with 200 μl FACS buffer/well and taken up in 100 μl phycoerythrin-conjugated goat anti-human IgG (H+L) secondary antibody (Jackson ImmunoResearch) which has been diluted 1:200 in FACS buffer. After 45 min incubation at 4° C. cells were washed 3× with FAGS buffer, resuspended in 100 μl of FACS buffer and cell surface binding of IL12Rβ1 specific antibodies was measured via FL2 fluorescence intensity of cells in FACSCalibur™ (Becton Dickinson).

[3] = target: T2, cynomolgus IL12Rβ1; assay: FACS, 1 µg/ml IgG4, BaF3 cells expressing cyno IL12Rβ1
Experimental: as §1

[4] = target: T3, human IL12Rβ1 (human, UniProt P42701 24-662); assay: FACS on Baf3 cells transfected with human IL12Rβ1, IgG4
T3 construct: On stably transfected Ba/F3 cells in FACS; on primary human T cells within PBMC in the functional assay; also called human IL12Rβ1 transfected Baf3 cells; Ba/F3/IL12Rβ1 expressing cells
Experimental: as §1

[5] = target: T2, cynomolgus IL12Rβ1; assay: FACS, 1 µg/ml Fab, HEK cells expressing cyno IL12Rβ1
Experimental: as §1

[6] = target: T4, recombinant human IL12Rβ1/Fc fusion protein (human, UniProt P42701 24-545); assay: solution equilibrium titration (SET), BioVeris ECL, Fab
T4 construct: Bought from R&D Systems; Partly used biotinylated; also called rh IL12Rβ1

[7] = target: T4, recombinant human IL12Rβ1/Fc fusion …; assay: as above; remark: listed apart in the source
[8] = target: T2, cynomolgus IL12Rβ1; assay: FACS, 1 µg/ml Fab, Jurkat cells expressing cyno IL12Rβ1
Experimental: as §1

[9] = target: T4, recombinant human IL12Rβ1/Fc fusion …; assay: BioVeris competition; Fab titrated with IL12Rβ1/Fc, competitor rhIL-12 on beads
Experimental: (§2) For the IL12 and IL23 binding inhibition assay, 25 μg recombinant human IL12 and 20 μg IL23 (R&D Systems) were directly coupled (NHS/EDC coupling) to 250 μl carboxylic acid M-270 Dynal magnetic beads (2×109 beads/ml), 50 μl Fab antibodies per well (20 nM stock) in 1:4 dilution steps (Fab concentration: 0.6 pM-10 nM) were incubated for 2 h with 50 μl of 40-100 pM IL12Rβ1/Fc fusion in 96 well plates (Nunc). 25 μl IL12 or IL23 coated beads and 1:500 diluted Streptavidin detection antibody labeled with BV-tag™ according to instructions of supplier (BioVeris Europe) were added to each well and incubated for 1.5 h. Detection was performed by BioVeris M-384 SERIES® Workstation (BioVeris Europe). EC50 determination was performed by evaluation of the resulting data by a 4-parameter logistic fit model (XLfit, IDBS).

[10] = target: T4, recombinant human IL12Rβ1/Fc fusion …; assay: BioVeris competition; Fab titrated with IL12Rβ1/Fc, competitor rhIL-23 on beads
Experimental: as §2

binding result [1]	EC50 [2] [pM]	MFI (mean fluorescent intensity) [3]	EC50 [4] [pM]	MFI (mean fluorescent intensity) [5]	Kd [6] [pM]	Kd [7] [pM]	MFI (mean fluorescent intensity) [8]	EC50 [9] [pM]	EC50 [10] [pM]	Binder
no binding	931	350	900	–	–	–	–	–	–	MOR05278 IgG4 (antibody, V domains shown, IgG4) VH: QVQLVESGGGLVQPGGSLRLSCAASGFTFSSYGMSWVRQAPGKGLEWVSYIEPKLFWYATFYAASVKGRFTISRDNSKNTLYLQMNSLRAEDTAVYYCARNDFMEPAYFALWGQGTLVTVSS VL: DIELTQPPSVSVAPGQTARISCSGDNLGSYYAYWYQQKPGQAPVGVIYDDSERPSGIPERFSGSNSGNTATLTISGTQAEDEADYYCSSYTYSKNNVFGGGTKLTVLG
–	–	–	–	3	31	31	4	80	240	MOR05278 Fab (Fab, V domains shown) VH: QVQLVESGGGLVQPGGSLRLSCAASGFTFSSYGMSWVRQAPGKGLEWVSYIEPKLFWYATFYAASVKGRFTISRDNSKNTLYLQMNSLRAEDTAVYYCARNDFMEPAYFALWGQGTLVTVSS VL: DIELTQPPSVSVAPGQTARISCSGDNLGSYYAYWYQQKPGQAPVGVIYDDSERPSGIPERFSGSNSGNTATLTISGTQAEDEADYYCSSYTYSKNNVFGGGTKLTVLG
no binding	1000	144	1200	–	–	–	–	–	–	MOR05281 IgG4 (antibody, V domains shown, IgG4) VH: QVQLKESGPALVKPTQTLTLTCTFSGFSLSTRGVGVSWIRQPPGKALEWLALIYWDEDKYYSTSLKTRLTISKDTSKNQVVLTMTNMDPVDTATYYCARYQSGYYYNNDGWGVDIWGQGTLVTVSS VL: DIQMTQSPSSLSASVGDRVTITCRASQSISSWLNWYQQKPGKAPKLLIYAASSLQSGVPSRFSGSGSGTDFTLTISSLQPEDFATYYCQQYYAFPHTFGQGTKVEIKR
–	–	–	–	2	1	1	2	60	70	MOR05281 Fab (Fab, V domains shown) VH: QVQLKESGPALVKPTQTLTLTCTFSGFSLSTRGVGVSWIRQPPGKALEWLALIYWDEDKYYSTSLKTRLTISKDTSKNQVVLTMTNMDPVDTATYYCARYQSGYYYNNDGWGVDIWGQGTLVTVSS VL: DIQMTQSPSSLSASVGDRVTITCRASQSISSWLNWYQQKPGKAPKLLIYAASSLQSGVPSRFSGSGSGTDFTLTISSLQPEDFATYYCQQYYAFPHTFGQGTKVEIKR
no binding	73	134	143	–	–	–	–	–	–	MOR05271 IgG4 (antibody, V domains shown, IgG4) VH: QVQLKESGPALVKPTQTLTLTCTFSGFSLSTSTMGVSWIRQPPGKALEWLAWIYWDDDKDYSTSLKSRLTISKDTSKNQVVLTMTNMDPVDTATYYCARANPDLGYFDYWGQGTLVTVSS VL: DIALTQPASVSGSPGQSITISCTGTSSDLGESNYVSWYQQHPGKAPKVMIYDVNKRPSGVSNRFSGSKSGNTASLTISGLQAEDEADYYCGSYDEEDNVFGGGTKLTVLG
–	–	–	–	2	21	21	3	10	25	MOR05271 Fab (Fab, V domains shown) VH: QVQLKESGPALVKPTQTLTLTCTFSGFSLSTSTMGVSWIRQPPGKALEWLAWIYWDDDKDYSTSLKSRLTISKDTSKNQVVLTMTNMDPVDTATYYCARANPDLGYFDYWGQGTLVTVSS VL: DIALTQPASVSGSPGQSITISCTGTSSDLGESNYVSWYQQHPGKAPKVMIYDVNKRPSGVSNRFSGSKSGNTASLTISGLQAEDEADYYCGSYDEEDNVFGGGTKLTVLG
–	–	–	–	368	59	59	249	90	170	MOR05286 Fab (Fab, V domains shown, also called MOR5286) VH: QVQLKESGPALVKPTQTLTLTCTFSGFSLSTSGMGVSWIRQPPGKALEWLALIDWTDDKYYSTSLKTRLTISKDTSKNQVVLTMTNMDPVDTATYYCARTVGKGLYRVDNWGQGTLVTVSS VL: DIELTQPPSVSVAPGQTARISCSGDNLGSKFAYWYQQKPGQAPVLVIYDDSKRPSGIPERFSGSNSGNTATLTISGTQAEDEADYYCQSWDSSSGNDVFGGGTKLTVLG
no binding	4800	271	2400	–	–	–	–	–	–	MOR05286 IgG4 (antibody, V domains shown, IgG4; also called MOR5286) VH: QVQLKESGPALVKPTQTLTLTCTFSGFSLSTSGMGVSWIRQPPGKALEWLALIDWTDDKYYSTSLKTRLTISKDTSKNQVVLTMTNMDPVDTATYYCARTVGKGLYRVDNWGQGTLVTVSS VL: DIELTQPPSVSVAPGQTARISCSGDNLGSKFAYWYQQKPGQAPVLVIYDDSKRPSGIPERFSGSNSGNTATLTISGTQAEDEADYYCQSWDSSSGNDVFGGGTKLTVLG
